Measured values: patent publication US20250283885A1, “MODULAR BIOSENSOR FOR RECEPTOR TYROSINE KINASE ACTIVITY” (The Trustees of Princeton University, priority 2024, published 2025)

Columns and labels:
FGFR1 = target: T1, FGFR1 (Homo sapiens, UniProt P11362); experiment: FGFR1 pYtag in NIH 3T3 cells: clearance of cytosolic ZtSH2; format: cell-based; conditions: not in cells with ITAM-less FGFR1
T1 construct: expressed in transfected cells; host or cells: NIH 3T3 cells expressing iRFP-ZtSH2
Description: One advantage of the pYtag approach is its modularity: ITAMs can in principle be fused to the C-termini of many different RTKs and recruit ZtSH2 upon stimulation. Therefore, it was tested whether pYtags could be adapted to monitor the activity of receptors other than EGFR. pYtag biosensors were designed for two additional RTKs: 1) ErbB2, a ligandless member of the ErbB family that signals by heterodimerizing with ligand-bound EGFR; and 2) fibroblast growth factor receptor 1 (FGFR1), a non-ErbB family RTK. ErbB2 is a particularly challenging RTK to study because it can only be activated in conjunction with an additional RTK (e.g., EGFR), so Grb2-based biosensors would be unable to distinguish between the activity of EGFR and ErbB2.
Starting from NIH 3T3 cells expressing iRFP-ZtSH2, cell lines expressing either an ErbB2 pYtag (ErbB2-CD3ε-FusionRed), an FGFR1 pYtag (FGFR1-CD3ε-FusionRed), or ITAM-less variants of each were generated. For the ErbB2 case, cells with EGFR-Citrine were further transduced to express both required components of a functional receptor heterodimer (see FIG. 3, and FIGS. 4A-4B).
The pYtag approach is indeed modular, and this strategy can be readily adapted for monitoring the activation of distinct RTKs in individual cells.

EGFR = EGFR (Homo sapiens, UniProt P00533); experiment: EGFR pYtag live-cell imaging: clearance of cytosolic ZtSH2 in NIH 3T3 cells; conditions: varying doses, NIH 3T3 EGFR pYtag
Description: Six ITAMs from the CD3γ, CD3δ, CD3ε, and CD3ζ chains of the TCR. In each case, three identical repeats of the ITAM were fused to the C-terminal tail of EGFR followed by the FusionRed fluorescent protein (EGFR-ITAM-FusionRed). Each receptor was the co-expressed with an iRFP-labeled ZtSH2 (iRFP-ZtSH2) in NIH 3T3 fibroblasts, which express negligible levels of EGFR. […] Because ZtSH2 can in principle be recruited rapidly on and off the membrane and may localize to distinct subcellular compartments, it was reasoned that pYtags could be used to monitor the subcellular activity of an RTK in individual cells over time.

T1 sequence (P11362 22-822, species assumed): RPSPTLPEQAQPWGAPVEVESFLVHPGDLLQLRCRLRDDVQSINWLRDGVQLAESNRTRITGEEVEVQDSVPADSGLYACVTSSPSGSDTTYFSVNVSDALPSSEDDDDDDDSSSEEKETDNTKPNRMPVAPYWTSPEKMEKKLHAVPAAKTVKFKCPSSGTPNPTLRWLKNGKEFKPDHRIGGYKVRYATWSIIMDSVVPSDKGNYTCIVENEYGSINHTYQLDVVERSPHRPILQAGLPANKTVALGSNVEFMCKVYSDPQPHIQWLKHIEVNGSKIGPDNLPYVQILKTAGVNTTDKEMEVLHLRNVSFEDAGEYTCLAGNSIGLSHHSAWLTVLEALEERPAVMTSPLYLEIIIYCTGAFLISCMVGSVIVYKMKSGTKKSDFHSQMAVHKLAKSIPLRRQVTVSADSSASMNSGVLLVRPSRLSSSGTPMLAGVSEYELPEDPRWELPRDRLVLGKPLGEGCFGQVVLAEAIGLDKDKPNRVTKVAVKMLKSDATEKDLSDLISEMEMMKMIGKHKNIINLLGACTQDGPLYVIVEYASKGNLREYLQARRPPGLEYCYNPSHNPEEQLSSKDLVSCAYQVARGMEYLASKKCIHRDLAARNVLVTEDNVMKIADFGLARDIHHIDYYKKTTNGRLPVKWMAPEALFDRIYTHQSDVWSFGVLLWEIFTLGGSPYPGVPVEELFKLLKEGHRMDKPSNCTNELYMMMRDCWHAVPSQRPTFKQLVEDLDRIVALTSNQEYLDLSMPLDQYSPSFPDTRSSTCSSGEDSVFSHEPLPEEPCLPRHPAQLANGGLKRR

ZtSH2 response of FGFR1 pYtag-expressing cells (FGFR1)	Molecule	EGFR activity dynamics after low-affinity ligand (EGFR)
induced cytosolic clearance of ZtSH2	FGF4: activating ligand used to stimulate FGFR1 pYtag-expressing cells (protein, UniProt P08620 31-206, looked up) Fibroblast growth factor 4: APTAPNGTLEAELERRWESLVALSLARLPVAAQPKEAAVQSGAGDYLLGIKRLRRLYCNVGIGFHLQALPDGRIGGAHADTRDSLLELSPVERGVVSIFGVASRFFVAMSSKGKLYGSPFFTDECTFKEILLPNNYNAYESYKYPGMFIALSKNGKTKKGNRVSPTMKVTHFLPRL	
	EPGN: epigen, low-affinity EGFR ligand (protein, UniProt Q6UW88 23-154, looked up) Epigen: AAVTVTPPITAQQGNWTVNKTEADNIEGPIALKFSHLCLEDHNSYCINGACAFHHELEKAICRCFTGYTGERCEHLTLTSYAVDSYEKYIAIGIGVGLLLSGFLVIFYCYIRKRCLKLKSPYNVCSGERRPL	rapid rise in EGFR activity followed by a plateau within minutes
